Several values for one entry are separate records, joined by “and”; a condition that tells them apart may be missing. Equal values may be shown once.

In experiment [1] the target is porcine calpain-1 (pig (Sus scrofa)) (UniProt P35750). Put plainly: SPR; calpain-1 immobilised on a CM5 chip by amino coupling (8,860 RU); PEDV S1 protein injected at 100 to 0.8 uM; room temperature; running buffer pH 5.4, 25 mM HEPES, 100 mM NaCl, 3 mM EDTA with 5 mM CaCl2; 1:1 Langmuir model; average KD of triplicates. On the technique in general: In SPR one partner is held on a chip, and binding of the other changes the refractive index at the surface.

In experiment [2] the target is recombinant S1 protein of PEDV strain CV777 (S1 domain of the spike protein) (porcine epidemic diarrhea virus, …, UniProt Q91AV1 1-1319, Expressed in a prokaryotic system, so not glycosylated. Construct limits are not printed: S1 is taken by convention as ending at residue 789, with the signal peptide 1-25 removed per UniProt.). The experiment is described as above. The settings on record: both partners purified.

In the case of “protein S1Δb1: PEDV S1 (CV777) lacking the b1 domain (N297 to A337) (from UniProt Q91AV1 1-1319) (domain or fragment)”, the Kd (as a rule, the equilibrium constant for the complex coming apart) in experiment [1] was determined as 198 µM.

For the molecule “recombinant S1 protein of PEDV strain OH851 (S1 domain of the spike protein) (domain or fragment)”, in experiment [1], the equilibrium dissociation constant (Kd) came out at 0.787 µM.

B1: porcine calpain-1 (enzyme, pig (Sus scrofa), UniProt P35750 1-714, looked up)
chain: MAEEVITPVYCTGVSAQVQKLRAKELGLGRHENAIKYLGQDYEQLRAHCLQSGSLFRDEAFPPVPQSLGFKELGPNSSKTYGVKWKRPTELFSNPQFIVDGATRTDICQGALGDCWLLAAIASLTLNDTLLHRVVPHGQSFQNGYAGIFHFQLWQFGEWVDVVVDDLLPTKDGKLVFVHSAQGNEFWSALLEKAYAKVNGSYEALSGGSTSEGFEDFTGGVTEWYELRKAPSDLYSIILKALERGSLLGCSIDISSVLDMEAVTFKKLVKGHAYSVTGAKQVNYQGQMVNLIRMRNPWGEVEWTGAWSDGSSEWNGVDPYQRDQLRVRMEDGEFWMSFRDFLREFTRLEICNLTPDALKSQRVRNWNTTLYEGTWRRGSTAGGCRNYPATFWVNPQFKIRLEETDDPEDDYGGRESGCSFVLALMQKHRRRERRFGRDMETIGFAVYEVPPELVGQPVHLKRDFFLANASRARSEQFINLREVSTRFRLPPGEYVVVPSTFEPNKEGDFVLRFFSEKKAGTQELDDQVQAILPDEQVLSEEEIDENFKALFRQLAGEDMEISVRELRTILNRIISKHKDLRTKGFSLESCRSMVNLMDRDGNGKLGLVEFNILWNRIRNYLSIFRKFDLDKSGSMSAYEMRMAIESAGFKLNKKLFELIITRYSEPDLAVDFDNFVCCLVRLETMFRFFKTLDTDLDGVVTFDLFKWLQLTMFA
notes: calpain-1 (catalytic subunit), pig (Sus scrofa); The discussion says in general that calpain-1 is a heterodimer of a catalytic subunit and a regulatory subunit (CAPNS1); also called CAP; p-calpain-1; source: calpain-1 purified from porcine small intestinal mucus fraction III on an antibody column; recombinant p-calpain-1 from HEK 293F, Ni-NTA
Take B1: the dissociation constant (Kd) in experiment [2] was 1.07 µM and 2.5 µM.

The values above are taken from paper PMC9600339, “Calpain-1: a Novel Antiviral Host Factor Identified in Porcine Small Intestinal Mucus” (mBio, 2022).
